The experiment has as its target mCherry-RAB28 WT (UniProt Q99KL7 1-221). Kind of experiment: co-IP; HEK293 cells cotransfected with FLAG-CFAP418 and mCherry-RAB28 WT, T26N, Q72L or mCherry; mCherry proteins 'pulled down', FLAG-CFAP418 seen only in the overexposed immunoblot. To be noted: partners not purified.

Experimental findings from paper PMC10906455, “Disruption of CFAP418 interaction with lipids causes widespread abnormal membrane-associated cellular processes in retinal degenerations” (JCI Insight, 2024) are described below.

B1: FLAG-CFAP418 (natural protein)
chain: MAKDLDELLDEVETKFCRLDPLRLDLGERPKGDGGGGSHSGDRNGAQEKETLRSTETFKKEDDLDSLINEIFEEPDFDRKSFQKFKSKSSSNTCVRAPMQGVSKSCSPVYLSGSAIPCGIGTNTSQRACDRLRCVACDFRIVSYNDYMWDKSCDYLFFRNNMPEFHKLKTKLIEKKGARAYACQCSWRTVEELTDLQTDHQLRWVCGKH
notes: CFAP418; source: HEK293, cotransfected, in lysate
As to B1, the “fraction of CFAP418 pulled down” value is around 0.1%.
